Article PMC3547700

Molecular target: V5-UL56 (HCMV strain AD169), plasmid-expressed (human cytomegalovirus strain AD169)

| Substance | percentage of transfected HEK-293 T cells with nuclear staining of UL56 by confocal microscopy, in the presence of UL89 (UL56 alone exclusively cytoplasmic) (% of cells with nuclear staining) | percentage of transfected HEK-293 T cells with nuclear staining of UL89 by confocal microscopy, in the presence of UL56 (UL89 alone exclusively cytoplasmic) (% of cells with nuclear staining) | percentage of transfected HEK-293 T cells with nuclear staining of UL56 by confocal microscopy, in the presence of UL51 (UL56 alone exclusively cytoplasmic) (% of cells with nuclear staining) |
| --- | --- | --- | --- |
| MYC-UL89 (HCMV strain AD169), plasmid-expressed (natural protein) | 37 | 26 |  |
| FLAG-UL51 (HCMV strain AD169), plasmid-expressed (natural protein) |  |  | 62 |
